Experimental findings from the supplement of paper PMC12042874 are described below.

± gives the uncertainty stated by the source.

The nature of this data set: amyloid nucleation score (Sup35N fusion, yeast selection) (log enrichment); library NNK2; higher = more nucleation; inactive = no reads after selection. In a few lines: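 Sup35N was fused to peptides of 20 random codons and expressed in psi-negative yeast, which were induced with 100 μM copper sulfate for 24 hours and then grown on medium lacking adenine and uracil for 7 days at 30°C. Plasmid inserts from input and output were sequenced on Illumina. The nucleation score is the DiMSum log enrichment of output over input reads, centred on the mode score of non-aggregating sequences. Sequences with under 100 input reads were left out, and random libraries had three technical output replicates.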
Consider VDRESRFWWEGVQGFLDYWV, for which the amyloid nucleation score is -0.614 ± 0.79. Under VDRFPVLVPKGWHMRRWCIR stands 0.669 ± 0.39; under VDSTFSHSSSFWELYRPTHL, -1.41 ± 1.1. The result for VDSYHGYTDRNALSFLCSLV reads 0.342 ± 0.23; that for VDTGEVNTF, 1.76 ± 0.086; that for VDTRRMARKS, 1.28 ± 0.27. VDTRS registered an amyloid nucleation score of 0.382 ± 0.8. The result for VEAIWHWVCYWSGMWSLGPG reads 3.69 ± 0.057. The result for VEMLFLSFMRPVLLGTMVAV reads 0.007 ± 1.1. Substance VESLRLRRSMVRNLILSSSC returned an amyloid nucleation score of -0.125 ± 0.63. Under VEVGLIVGSCSILI stands -0.525 ± 0.64.

As to VFCSSRFCIEECGC, the amyloid nucleation score was -0.453 ± 0.64. Regarding VFFFKRLYTKVCF, the amyloid nucleation score entry is “inactive”. Under VFGVLPIIGYPVRVLCVRFI stands -0.43 ± 1.1. The result for VFGWS reads 0.745 ± 0.22. On to VFIRAGIVFQFWCNG, for which the amyloid nucleation score was determined as 7.22 ± 0.043. Under VFKRNQ stands 0.769 ± 0.41; under VFLVHPTFSFKNRVCLNFVW, -0.081 ± 1.1; under VFMFMTQVSRKSYALPRTAA, 3.02 ± 0.12. Under VFNSTFANLW stands 2.6 ± 0.092.

In turn, VFRVCEMDSSLFHYGLALDR showed an amyloid nucleation score of 0.521 ± 0.3. The result for VFSGTSMRGTEEIKMSWCEK reads 7.686 ± 0.044; that for VFSTTSLNV, -0.647 ± 0.34; that for VFSYYMSRFLGATCMYKAAG, 5.1 ± 0.072.

VFTSGSRCHPWLE came in with an amyloid nucleation score of 1.45 ± 0.27.

The substance VFTVLYALSCLSFIFVTV showed an amyloid nucleation score of 4.04 ± 0.047. Under VFWGILMRGVRRTFSDCAGT stands -1.47 ± 0.75.

In turn, VFWITAQMYY returned an amyloid nucleation score of 2.18 ± 0.076.

Turning to VFYNIL, the amyloid nucleation score result was “inactive”. The result for VFYVTYTS reads 5.76 ± 0.074; that for VGGQRHWYLYHDSLHFPQLE, 0.396 ± 0.62. Under VGGVIYAYGFVFF stands 7.381 ± 0.029; under VGKWVRGQTSLLLVAWSAIY, 0.28 ± 0.61.

On to VGLNYNAMAHTSRGSF, for which the amyloid nucleation score worked out at 0.236 ± 0.38. Under VGPPEIWVEFFAV stands -0.813 ± 1.1. Under VGRNYLWYRTMPDIYCQVCG stands 1.62 ± 0.077; under VGTILAPGGLWGMEVCWQTK, 3.06 ± 0.12.

As for VGTPEHKLFYGLCVALGQFQ, the amyloid nucleation score entry is “inactive”. The result for VGVWATGRGCSISEYNGKNR reads 1.09 ± 0.12; that for VHFMIMQNSNCYCVKHIDFM, 9.425 ± 0.04; that for VHLLGDFGLASQRRNECKLL, 0.477 ± 0.28. The result for VHLTAVWCLDRRRVRKIFIV reads -0.802 ± 0.76; that for VICLCVLFRGSCRIKILDIV, -1.37 ± 1.1.

For VICNLDCLEVEGGILDQ, the amyloid nucleation score is -1.04 ± 1.1. Under VIDVKFVGYILQVYVGVSFG stands 0.026 ± 1.1; under VIEMRHDRFFTVYSVEITAG, 0.623 ± 0.52; under VIFIINELYGCIASNERVCA, 6.281 ± 0.049. Under VIFTGKDLLVSLQTKCLAVW stands 0.942 ± 0.81; under VIGTTGMYLCVVLETIHNWC, 1.07 ± 0.26; under VIIINIVFKSGMGQLLGHRR, 6.53 ± 0.074. The result for VIKTG reads “inactive”; that for VIQIVNFSDNIMTCLHNHLQ, 5.64 ± 0.086; that for VIVCCGSCLHRE, 9.721 ± 0.05. Regarding VIWHWVAGH, the amyloid nucleation score was found to be 5.71 ± 0.087. The result for VIYLIGSHYTLVSNRLYEIG reads 8.186 ± 0.08; that for VIYLVLGKTRLNIELSVLST, 1.16 ± 0.45. Under VIYMNAGLYLRLKRRFDYVV stands 0.72 ± 0.58; under VKGGSRS, -0.186 ± 0.49. Under VKGISWGLRFS stands “inactive”.

In the case of VKGKE, the amyloid nucleation score was found to be 2.31 ± 0.14. The result for VKIMMELPLKIDGFLSHVRR reads 0.088 ± 0.24.

The substance VKLTLRVLLMSRTETHTVCR came in with an amyloid nucleation score of 0.494 ± 0.44. The result for VKNFTPFRHILVITYNITFN reads 1.9 ± 0.14; that for VKPVSVFL, -0.11 ± 0.63; that for VKQWT, 1.74 ± 0.24. As to VKSRRLTYNS, the amyloid nucleation score turned out to be 0.192 ± 0.79. The result for VKSTYAYPPNVVDPHIGWGH reads 0.99 ± 0.24.

In turn, VLACTEGNVLFEDDLRTKGL registered an amyloid nucleation score of 1.56 ± 0.35. Under VLAKISTTE stands 0.705 ± 0.15; under VLASWSDFKSRGRGNSSVSG, 1.24 ± 0.33.

For the substance VLDSINVSVCSWRVSCVTWL, the amyloid nucleation score is 7.709 ± 0.033. The result for VLEFFLKSSF reads 3.1 ± 0.14; that for VLEGIYLLMKVCLIYPRSYD, -1.8 ± 1.1. The result for VLIFMIKVWARITLMGYSRL reads -0.666 ± 0.3.

The substance VLKCGHKYLVIDSWKL gave an amyloid nucleation score of 1.78 ± 0.092. The result for VLKPYM reads -1.3 ± 0.54. Under VLLLAQHVLSGSNFTMG stands 3.44 ± 0.045. The result for VLLRDNGLELFAP reads 0.779 ± 0.3. For the substance VLLRVRRCYSVPTFRVWSAT, the amyloid nucleation score worked out at 1.39 ± 0.18. The result for VLLTNQRMVFCMGRFAPRVG reads -0.556 ± 0.32. Under VLPQDKNMILYYKSLLHLFC stands 0.823 ± 0.44. The result for VLRSVRIFLDN reads 1.3 ± 0.15; that for VLSEI, 0.607 ± 0.25. VLSLHDSVLLYRSAGIRYGW gave an amyloid nucleation score of 5.03 ± 0.058. Take VLSNKFI: the amyloid nucleation score entry was “inactive”.

Consider VLSNYGNYISDWQLQLRLT, for which the amyloid nucleation score was -0.149 ± 0.32. In turn, VLSVISLFGHILVMFLERKV displayed an amyloid nucleation score of -0.13 ± 0.76. The result for VLTVWPYHCAIVEILSGCVL reads 5.98 ± 0.081; that for VLVCRFQSIFGILVVASCVK, -1.53 ± 0.55; that for VLWCDKWVGNNMKDGELTLW, 0.446 ± 0.43. Under VLYFLLLFFRD stands “inactive”. The result for VMKFMWKMMLNRERAPYHVL reads -0.784 ± 0.49; that for VMLSLMDKLEYMPV, 1.31 ± 0.32. As for VMNHSQL, the amyloid nucleation score was found to be 3.92 ± 0.051. In turn, VMTIVIFGLYNY came in with an amyloid nucleation score of 2.35 ± 0.18. The result for VNAFLSLKSKACHWACGNDD reads 3.67 ± 0.055. Under VNEIWYDLDYEKVGFV stands 2.81 ± 0.074. The result for VNFLWE reads -0.447 ± 1.1; that for VNFYSALSSDNTRMYWLLTV, -0.898 ± 1.1. Substance VNLSTGSRDLRGYWTTPIFQ returned an amyloid nucleation score of -0.815 ± 0.54. For VNRPATPFEGSQCLIIYSRV, the amyloid nucleation score was -0.613 ± 0.45.

Take VPCRSPVSGASKRTYLLINV: the amyloid nucleation score was determined as 0.045 ± 0.31.

VPKAWTVWAQVPINWSARQA displayed an amyloid nucleation score of 0.737 ± 0.62. Consider VPLCDVYWA, for which the amyloid nucleation score is -0.902 ± 0.61.

VPTCN displayed an amyloid nucleation score of 0.123 ± 0.54. Take VQDYFFSCFATRSV: the amyloid nucleation score worked out at 3.26 ± 0.059. Under VQGLHCWIG stands “inactive”; under VQISWRFVPWI, 1.79 ± 0.12; under VQYMHNRMVLWFFSDPLKDR, 2.58 ± 0.099. The result for VRCSVCVGACEHGPVN reads 1.27 ± 0.61; that for VRDSSNYMTLFRCSNFWHTR, 6.488 ± 0.051; that for VRDVKLLPKMVGSNIIGSVL, “inactive”. On to VRFFYSFVPT, for which the amyloid nucleation score result was “inactive”. Under VRFIAR stands “inactive”; under VRFPTSLFSAEQCTPALCSV, 0.066 ± 1; under VRFQELAR, 0.343 ± 0.27. Under VRFSQKYCSVDIAMQRLFMV stands -0.625 ± 0.25; under VRFSVLRFGKLCPSGLWRVR, 0.255 ± 1.1; under VRGAIVQKALDCKSVDKSLE, “inactive”.

For VRGLFVLTVLEVS, the amyloid nucleation score is -0.161 ± 1.1. Under VRLRTHMFY stands -0.831 ± 0.76; under VRNGFKMRRRMSSPVCETLL, -0.642 ± 1.1; under VRPFECGFTLPVWGG, 0.923 ± 0.81. The result for VRVDGPTLWCTQVRLSGERA reads 0.951 ± 0.17; that for VRWNIVKSCAVMDSNGIMWV, 0.432 ± 0.33; that for VRYKSYMDVS, 0.87 ± 0.48. For VSAKVFSGGKESVMMCWPPL, the amyloid nucleation score is 1.58 ± 0.41. Under VSAWWQDVYSCTHTHAPAAQ stands 5.46 ± 0.098; under VSCAESVGIYINYWFLNCQE, 8.702 ± 0.03; under VSCCNLVVDLKRTILLFGGR, 7.504 ± 0.052. Under VSCDNASSVLFFVRTTIWCT stands 0.751 ± 0.74. Under VSGMPIKMR stands 0.886 ± 0.34. In the case of VSHMNCLDMICHLWISQLVL, the amyloid nucleation score turned out to be 1.65 ± 0.098. Under VSHRIFGGNMWPGKSHECMC stands “inactive”. The substance VSIIRIKYSNQAISVRNSDS displayed an amyloid nucleation score of 4.155 ± 0.038. Under VSISKVFAAFVFLEPANTRI stands 5.36 ± 0.097.

In turn, VSKNYDHCELRHMECAYWYT registered an amyloid nucleation score of 0.211 ± 0.19. As to VSKPQKRFKDEFYSLLSVKF, the amyloid nucleation score was -0.55 ± 0.76. With VSLHKRPTWLPVCIARYGWS, the amyloid nucleation score was 0.333 ± 0.24. VSNAGSSTKDILGIHRS had an amyloid nucleation score of -0.06 ± 1.1. VSPNPIWIVEKWPI registered an amyloid nucleation score of -1.63 ± 0.62.
